The values that follow come from article PMC8654040 (Nature structural & molecular biology, 2021).

Assay [1] addresses T1, FUS SYGQ LC (FUS 1-163), N-terminal low complexity domain (UniProt P35637 1-163).
T1 sequence (looked up): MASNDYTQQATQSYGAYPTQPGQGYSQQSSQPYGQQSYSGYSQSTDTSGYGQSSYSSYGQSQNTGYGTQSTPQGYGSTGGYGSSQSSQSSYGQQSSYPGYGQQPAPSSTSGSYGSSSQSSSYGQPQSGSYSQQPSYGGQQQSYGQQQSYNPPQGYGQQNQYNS
In words: co-sedimentation.

The target in assay [2] is T1, FUS SYGQ LC (FUS 1-163), N-terminal low …. In words: intermolecular NOE NMR of a condensed phase.

B1: 488-labeled FUS SYGQ LC (FUS 1-163 labelled with DyLight 488 NHS ester) (domain or fragment, UniProt P35637 1-163, looked up)
chain: T1 sequence (looked up)
modifications: DyLight 488 (NHS ester labelling)
As to B1, in assay [1], the binding result was “binds”.

B2: FUS RGG3 (453-507) (domain or fragment, UniProt P35637 453-507, looked up)
chain: DGPGGGPGGSHMGGNYGDDRRGGRGGYDRGGYRGRGGDRGGFRGGRGGGDRGGFG
For the molecule B2, in assay [2], the binding result is listed as “binds”.
